The target in series [1] is Macaca mulatta TLR7 extracellular domain (Macaca mulatta). Briefly: cryo-EM structure.
Series [2] shares this target. Briefly: cryo-EM structure. The source holds these as a separate data set.
Series [3] addresses T1, TLR8 extracellular domain (Homo sapiens, UniProt Q9NR97 27-827).
T1 sequence: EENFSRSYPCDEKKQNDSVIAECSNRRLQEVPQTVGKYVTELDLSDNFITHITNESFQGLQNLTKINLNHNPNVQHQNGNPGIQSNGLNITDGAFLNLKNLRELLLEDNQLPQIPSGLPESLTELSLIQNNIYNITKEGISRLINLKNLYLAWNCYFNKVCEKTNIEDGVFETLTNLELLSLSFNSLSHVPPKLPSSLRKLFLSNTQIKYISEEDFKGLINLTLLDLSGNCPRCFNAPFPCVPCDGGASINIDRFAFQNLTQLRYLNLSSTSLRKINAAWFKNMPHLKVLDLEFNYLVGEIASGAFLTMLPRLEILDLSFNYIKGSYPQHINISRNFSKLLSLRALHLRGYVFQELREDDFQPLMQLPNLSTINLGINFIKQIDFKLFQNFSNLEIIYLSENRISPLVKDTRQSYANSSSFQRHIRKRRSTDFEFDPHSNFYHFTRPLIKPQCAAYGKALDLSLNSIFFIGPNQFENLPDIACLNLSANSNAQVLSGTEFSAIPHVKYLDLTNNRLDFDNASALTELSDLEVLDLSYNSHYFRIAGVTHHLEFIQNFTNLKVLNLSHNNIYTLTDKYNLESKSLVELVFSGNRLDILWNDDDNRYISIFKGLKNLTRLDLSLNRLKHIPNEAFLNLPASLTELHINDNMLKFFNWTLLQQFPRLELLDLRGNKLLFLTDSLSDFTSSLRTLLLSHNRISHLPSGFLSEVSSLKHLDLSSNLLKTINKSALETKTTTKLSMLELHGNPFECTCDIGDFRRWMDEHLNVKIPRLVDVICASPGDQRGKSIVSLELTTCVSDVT
Briefly: SPR.

In series [4] the target is T1, TLR8 extracellular domain. The series is described as follows: SPR. The source holds these as a separate data set.

This is an account of results in paper doi:10.1101/2024.07.25.605091.

Like-named read-outs stand apart in the source and are kept apart here.

Turning to “Macaca mulatta TLR7 extracellular domain (receptor)”, the stoichiometry N in series [1] and in series [2] was 2 each time.
Consider GCC (XNA, 2'-OMe at G1; DNA C2 and C3; phosphorothioate linkages, stereorandom) [GCC-v4 (mGdCdC)], for which, in series [3], binding was characterised by a dissociation constant (Kd) of 8 µM.
In the case of GAG (XNA, 2'-OMe at G1 and A2; DNA G3; phosphorothioate linkages, stereorandom) [GAG-v1 (mGmAdG)], the affinity in series [4], expressed as Kd, was 4 µM.
